From patent publication US20090054344A1

How the values were obtained:
[1] = molecular target: human αvβ3 protein (CHEMICON), soluble (human) (UniProt P06756); assay: cell-based or functional assay
[2] = molecular target: αvβ3 integrin on C-PAE cells (bovine) (UniProt P80746); assay: C-PAE attachment to Tum-1-coated plates; the blocked ligand is Tum-1
[3] = molecular target: αvβ3 integrin on C-PAE cells (bovine) (UniProt P80746); assay: C-PAE attachment to Tum-2-coated plates; the blocked ligand is Tum-2
[4] = molecular target: αvβ3 integrin on C-PAE cells (bovine) (UniProt P80746); assay: C-PAE attachment to Tum-4-coated plates; the blocked ligand is Tum-4
[5] = molecular target: αvβ3 integrin on HUVEC cells (human) (UniProt P06756); assay: HUVEC binding to vitronectin-coated plates; 10 µg/ml antibody; the blocked ligand is vitronectin
Sequence of αvβ3 integrin on HUVEC cells (human) (P06756 31-1048, chain 1 of 2): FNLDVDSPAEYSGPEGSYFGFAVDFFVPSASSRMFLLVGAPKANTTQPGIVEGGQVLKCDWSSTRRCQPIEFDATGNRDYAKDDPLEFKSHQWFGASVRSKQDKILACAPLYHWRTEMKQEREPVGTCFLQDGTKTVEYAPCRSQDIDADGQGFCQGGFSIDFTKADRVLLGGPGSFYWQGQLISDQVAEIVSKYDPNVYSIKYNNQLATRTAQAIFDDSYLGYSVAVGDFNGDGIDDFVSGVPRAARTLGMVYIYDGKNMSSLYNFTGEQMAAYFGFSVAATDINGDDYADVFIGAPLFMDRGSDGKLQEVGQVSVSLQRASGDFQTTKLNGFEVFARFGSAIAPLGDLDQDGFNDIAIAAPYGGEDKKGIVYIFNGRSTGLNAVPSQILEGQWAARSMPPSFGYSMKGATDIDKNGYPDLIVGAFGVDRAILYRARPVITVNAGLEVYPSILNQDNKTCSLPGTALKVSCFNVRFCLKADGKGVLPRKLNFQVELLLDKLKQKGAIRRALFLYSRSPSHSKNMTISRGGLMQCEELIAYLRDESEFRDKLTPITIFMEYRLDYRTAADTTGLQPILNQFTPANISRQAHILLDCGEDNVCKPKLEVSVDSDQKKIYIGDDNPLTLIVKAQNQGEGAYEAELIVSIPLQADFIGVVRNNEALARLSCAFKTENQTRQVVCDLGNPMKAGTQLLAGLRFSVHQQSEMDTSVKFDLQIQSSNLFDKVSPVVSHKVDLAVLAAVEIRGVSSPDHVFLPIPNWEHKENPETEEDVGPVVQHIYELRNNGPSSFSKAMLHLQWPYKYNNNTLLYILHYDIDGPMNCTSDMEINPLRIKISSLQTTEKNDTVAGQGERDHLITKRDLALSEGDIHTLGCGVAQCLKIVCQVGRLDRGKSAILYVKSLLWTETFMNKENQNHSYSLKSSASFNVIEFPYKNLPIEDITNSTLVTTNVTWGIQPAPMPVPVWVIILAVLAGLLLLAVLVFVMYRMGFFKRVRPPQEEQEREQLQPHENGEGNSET
Sequence of αvβ3 integrin on HUVEC cells (human) (P05106 27-788, chain 2 of 2, further chain): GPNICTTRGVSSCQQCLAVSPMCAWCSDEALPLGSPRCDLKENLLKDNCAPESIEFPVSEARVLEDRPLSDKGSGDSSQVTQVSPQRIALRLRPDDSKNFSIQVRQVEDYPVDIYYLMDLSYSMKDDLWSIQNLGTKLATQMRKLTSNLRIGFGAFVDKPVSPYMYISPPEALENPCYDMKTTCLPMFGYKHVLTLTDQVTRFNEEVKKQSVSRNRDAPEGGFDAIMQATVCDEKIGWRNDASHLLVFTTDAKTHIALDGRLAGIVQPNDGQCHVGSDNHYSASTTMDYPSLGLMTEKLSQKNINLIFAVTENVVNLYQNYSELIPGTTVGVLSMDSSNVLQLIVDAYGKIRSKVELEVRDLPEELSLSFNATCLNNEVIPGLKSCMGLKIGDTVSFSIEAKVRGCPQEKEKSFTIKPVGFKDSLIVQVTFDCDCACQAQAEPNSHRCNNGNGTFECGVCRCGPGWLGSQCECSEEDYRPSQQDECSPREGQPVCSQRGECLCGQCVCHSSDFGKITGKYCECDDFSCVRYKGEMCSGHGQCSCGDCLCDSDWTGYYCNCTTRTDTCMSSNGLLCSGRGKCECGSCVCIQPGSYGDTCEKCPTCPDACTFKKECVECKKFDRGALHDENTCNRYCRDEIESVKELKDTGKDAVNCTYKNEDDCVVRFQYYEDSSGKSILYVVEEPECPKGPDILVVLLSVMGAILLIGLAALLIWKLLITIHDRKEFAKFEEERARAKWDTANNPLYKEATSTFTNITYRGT

[6] = molecular target: αvβ3 integrin on HUVEC cells (human) (UniProt P06756); assay: HUVEC adhesion to collagen Type IV-coated wells (10 µg/ml); 10 µg/ml antibody; the blocked ligand is type IV collagen
[7] = molecular target: αvβ3 integrin on HUVEC cells (human) (UniProt P06756); assay: HUVEC attachment to Tumstatin-coated plates (10 µg/ml); 10 µg/ml antibody, against control IgG; the blocked ligand is Tumstatin
[8] = molecular target: αvβ3 integrin on HUVEC cells (human) (UniProt P06756); assay: HUVEC attachment to Tumstatin-coated plates; αvβ3 antibody used TOGETHER with β1 antibody; the blocked ligand is Tumstatin
[9] = molecular target: αvβ3 integrin on HUVEC cells (human) (UniProt P06756); assay: HUVEC attachment to plates coated with E. coli-expressed Tumstatin-44-131 (10 µg/ml); 10 µg/ml antibody; the blocked ligand is Tumstatin-44-131
[10] = molecular target: integrin β1 subunit on HUVEC cells (human) (UniProt P05556); assay: HUVEC adhesion to collagen Type IV-coated wells (10 µg/ml); 10 µg/ml antibody; the blocked ligand is type IV collagen
Sequence of integrin β1 subunit on HUVEC cells (human) (P05556 21-798): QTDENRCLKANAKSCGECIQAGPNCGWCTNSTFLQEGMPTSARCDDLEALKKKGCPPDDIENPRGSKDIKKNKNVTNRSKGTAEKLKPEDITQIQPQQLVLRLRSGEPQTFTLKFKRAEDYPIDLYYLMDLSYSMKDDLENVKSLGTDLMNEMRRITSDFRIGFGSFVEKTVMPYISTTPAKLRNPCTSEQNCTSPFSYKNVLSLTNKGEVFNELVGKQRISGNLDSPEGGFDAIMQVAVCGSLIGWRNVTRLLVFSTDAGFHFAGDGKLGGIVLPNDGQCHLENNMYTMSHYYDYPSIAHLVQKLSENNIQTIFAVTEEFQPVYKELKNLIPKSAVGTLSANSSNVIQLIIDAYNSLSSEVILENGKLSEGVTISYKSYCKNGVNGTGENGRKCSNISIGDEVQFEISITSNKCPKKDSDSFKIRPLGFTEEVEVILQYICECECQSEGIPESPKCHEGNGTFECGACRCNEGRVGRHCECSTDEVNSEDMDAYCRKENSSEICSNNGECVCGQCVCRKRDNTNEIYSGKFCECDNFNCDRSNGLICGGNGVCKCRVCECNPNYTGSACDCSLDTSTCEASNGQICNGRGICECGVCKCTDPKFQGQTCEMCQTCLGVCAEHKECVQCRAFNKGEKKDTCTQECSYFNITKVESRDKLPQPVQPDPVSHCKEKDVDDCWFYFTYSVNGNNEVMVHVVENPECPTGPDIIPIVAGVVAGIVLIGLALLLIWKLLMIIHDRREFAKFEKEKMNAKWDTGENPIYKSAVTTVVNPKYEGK

[11] = molecular target: integrin β1 subunit on HUVEC cells (human) (UniProt P05556); assay: HUVEC adhesion to Arresten-coated wells (10 µg/ml); cells pre-mixed with 10 µg/ml antibody; the blocked ligand is Arresten
[12] = molecular target: integrin β1 subunit on HUVEC cells (human) (UniProt P05556); assay: HUVEC attachment to Tumstatin-coated plates (10 µg/ml); 10 µg/ml antibody, against control IgG; the blocked ligand is Tumstatin
[13] = molecular target: integrin β1 subunit on HUVEC cells (human) (UniProt P05556); assay: HUVEC binding to type IV collagen-coated plates; 10 µg/ml antibody, against control IgG; the blocked ligand is type IV collagen
[14] = molecular target: integrin β1 subunit on HUVEC cells (human) (UniProt P05556); assay: HUVEC attachment to plates coated with E. coli-expressed Tumstatin-44-131 (10 µg/ml); 10 µg/ml antibody; the blocked ligand is Tumstatin-44-131

Sequence of αvβ3 integrin on C-PAE cells (bovine) (P80746 31-1048): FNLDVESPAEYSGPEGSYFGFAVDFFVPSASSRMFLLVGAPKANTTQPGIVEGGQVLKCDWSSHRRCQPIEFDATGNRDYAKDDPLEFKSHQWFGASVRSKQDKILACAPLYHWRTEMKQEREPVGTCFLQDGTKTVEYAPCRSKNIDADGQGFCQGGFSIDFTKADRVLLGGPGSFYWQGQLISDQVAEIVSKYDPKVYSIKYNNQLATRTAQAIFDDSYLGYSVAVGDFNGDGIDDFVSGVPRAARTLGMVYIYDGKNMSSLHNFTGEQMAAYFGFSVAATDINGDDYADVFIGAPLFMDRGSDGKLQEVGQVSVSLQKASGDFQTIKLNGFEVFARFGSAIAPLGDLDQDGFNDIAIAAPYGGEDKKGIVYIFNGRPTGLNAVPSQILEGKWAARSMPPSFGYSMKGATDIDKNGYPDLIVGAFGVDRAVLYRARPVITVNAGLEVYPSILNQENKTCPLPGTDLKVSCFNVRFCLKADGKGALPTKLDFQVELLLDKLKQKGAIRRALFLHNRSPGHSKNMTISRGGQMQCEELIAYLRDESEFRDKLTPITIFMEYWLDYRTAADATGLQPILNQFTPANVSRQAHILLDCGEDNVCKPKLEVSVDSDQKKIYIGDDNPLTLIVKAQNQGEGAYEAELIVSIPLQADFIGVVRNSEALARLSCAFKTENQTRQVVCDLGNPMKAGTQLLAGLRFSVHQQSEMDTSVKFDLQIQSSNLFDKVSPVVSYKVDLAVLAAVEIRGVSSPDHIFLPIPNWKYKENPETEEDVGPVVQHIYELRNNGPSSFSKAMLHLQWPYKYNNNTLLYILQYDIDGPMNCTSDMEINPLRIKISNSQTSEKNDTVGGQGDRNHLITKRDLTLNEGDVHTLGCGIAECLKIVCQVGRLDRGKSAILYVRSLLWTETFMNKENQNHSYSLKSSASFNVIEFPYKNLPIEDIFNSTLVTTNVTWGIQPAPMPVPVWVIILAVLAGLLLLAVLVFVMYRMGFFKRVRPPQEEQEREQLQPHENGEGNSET

## Tum-2 (from UniProt Q01955 1427-1558) (ligand)
[1]
  recovery of Tum-2's anti-proliferative effect on C-PAE cells after pre-incubation with αvβ3 protein (methylene blue): 74.1%

## Tum-4 (from UniProt Q01955 1607-1670) (ligand)
[1]
  recovery of the Tum-4-induced anti-proliferative effect on WM-164 melanoma cells after pre-incubation with αvβ3 protein (methylene blue): 76.7%

## monoclonal antibody to αvβ3 integrin (clone LM609, CHEMICON)
[2]
  % inhibition of cell attachment: 55.9%
[3]
  % inhibition of cell attachment: 69.8%
[4]
  % inhibition of cell attachment: 62.6%
[5]
  % inhibition of cell binding: 61%
[6]
  % inhibition of cell adhesion: 15%
[7]
  % inhibition of cell attachment: 80%
[8]
  % inhibition of cell attachment: 91%
[9]
  % inhibition of cell attachment: 47.1%

## mouse monoclonal antibody to the human β1 integrin subunit (clone P4C10)
[10]
  % inhibition of cell adhesion: 40%
[11]
  % inhibition of cell adhesion: 70%
[12]
  % inhibition of cell attachment: 54%
[13]
  % inhibition of cell binding: 53%
[14]
  % inhibition of cell attachment: 47.5%
